{"source": "paper PMC10204415", "about": "(2023)", "binders": {"B1": {"name": "GST-ZO1-ZU5 (mouse ZO-1 ZU5 domain, residues 1624–1745) (domain or fragment)", "chain": "EDGHTVVATARGIFNSNGGVLSSIETGVSIIIPQGAIPEGIEQEIYFKVCRDNSILPPLDKEKGETLLSPLVMCGPHGLKFLKPVELRLPHCDPKTWQNKCLPGDPNYLVGANCVSVLIDHF"}}, "key": {"[1]": {"molecular_target": "T1, MBP-ARHGEF11 (mouse ARHGEF11 residues 1334–1406, except for deleted residues 1352–1394 by alternative … (mouse, UniProt Q68FM7 1334-1406, deleted residues 1352–1394 by alternative splicing))", "T1 sequence (Q68FM7 entry or part of it deleted residues 1352–1394 by alternative splicing)": "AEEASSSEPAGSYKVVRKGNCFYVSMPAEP", "experiment": "replicate 3; without BSA blocking"}, "[2]": {"molecular_target": "T1, MBP-ARHGEF11 (mouse ARHGEF11 residues …)", "experiment": "replicate 2; GSA-immobilized MBP-ARHGEF11, CDNB assay"}, "[3]": {"molecular_target": "T1, MBP-ARHGEF11 (mouse ARHGEF11 residues …)", "experiment": "replicate 2; without BSA blocking"}, "[4]": {"molecular_target": "T1, MBP-ARHGEF11 (mouse ARHGEF11 residues …)", "experiment": "replicate 1; GSA-immobilized MBP-ARHGEF11, CDNB assay"}, "[5]": {"molecular_target": "T1, MBP-ARHGEF11 (mouse ARHGEF11 residues …)", "experiment": "replicate 1; without BSA blocking"}, "[6]": {"molecular_target": "T1, MBP-ARHGEF11 (mouse ARHGEF11 residues …)", "experiment": "replicate 3; GSA-immobilized MBP-ARHGEF11, CDNB assay"}}}
{"binder": "B1", "values": [{"measurement": "Kd", "setting": "[1]", "value": 14.7, "unit": "µM"}, {"measurement": "Kd", "setting": "[2]", "value": 28, "unit": "µM"}, {"measurement": "Kd", "setting": "[3]", "value": 10.9, "unit": "µM"}, {"measurement": "Kd", "setting": "[4]", "value": 37.3, "unit": "µM"}, {"measurement": "Kd", "setting": "[5]", "value": 8.7, "unit": "µM"}, {"measurement": "Kd", "setting": "[6]", "value": 56, "unit": "µM"}]}
